We go through 2 molecules from article PMC6609460 (Nature structural & molecular biology, 2019).

B1: PTAR1 in the crystallised GGTase3-FBXL2-SKP1 complex (natural protein)
chain: MAETSEEVAVLVQRVVKDITNAFRRNPHIDEIGLIPCPEARYNRSPIVLVENKLGVESWCVKFLLPYVHNKLLLYRTRKQWLNRDELIDVTCTLLLLNPDFTTAWNVRKELILSGTLNPIKDLHLGKLALTKFPKSPETWIHRRWVLQQLIQETSLPSFVTKGNLGTIPTERAQRLIQEEMEVCGEAAGRYPSNYNAWSHRIWVLQHLAKLDVKILLDELSSTKHWASMHVSDHSGFHYRQFLLKSLISQTVIDSSVMEQNPLRSEPALVPPKDEEAAVSTEEPRINLPHLLEEEVEFSTDLIDSYPGHETLWCHRRHIFYLQHHLNAGSQLSQAMEVDGLNDSSKQGYSQETKRLKRTPVPDSLGLEMEHRFIDQVLSTCRNVEQARFASAYRKWLVTLSQ

For assay [1], the target named is T1, FBXL2 in the crystallised GGTase3-FBXL2-SKP1 complex (human, UniProt Q9UKC9 1-423).
T1 sequence: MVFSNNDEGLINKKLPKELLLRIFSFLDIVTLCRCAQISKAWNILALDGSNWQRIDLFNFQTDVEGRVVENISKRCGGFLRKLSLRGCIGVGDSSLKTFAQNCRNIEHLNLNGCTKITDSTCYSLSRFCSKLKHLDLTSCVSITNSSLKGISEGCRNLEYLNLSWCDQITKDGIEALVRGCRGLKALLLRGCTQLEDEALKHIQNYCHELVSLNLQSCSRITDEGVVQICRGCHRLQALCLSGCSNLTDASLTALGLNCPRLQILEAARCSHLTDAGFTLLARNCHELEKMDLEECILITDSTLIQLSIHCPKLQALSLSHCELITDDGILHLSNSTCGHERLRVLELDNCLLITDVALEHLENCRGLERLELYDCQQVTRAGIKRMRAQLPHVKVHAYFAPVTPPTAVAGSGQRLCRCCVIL
In words: crystal structure.

Assay [2] has as its target B1. In words: crystal structure.

As for B1, the binding result in assay [1] is “binds”.

B2: RabGGTB in the crystallised GGTase3-FBXL2-SKP1 complex (natural protein)
chain: MGTPQKDVIIKSDAPDTLLLEKHADYIASYGSKKDDYEYCMSEYLRMSGIYWGLTVMDLMGQLHRMNREEILAFIKSCQHECGGISASIGHDPHLLYTLSAVQILTLYDSINVIDVNKVVEYVKGLQKEDGSFAGDIWGEIDTRFSFCAVATLALLGKLDAINVEKAIEFVLSCMNFDGGFGCRPGSESHAGQIYCCTGFLAITSQLHQVNSDLLGWWLCERQLPSGGLNGRPEKLPDVCYSWWVLASLKIIGRLHWIDREKLRNFILACQDEETGGFADRPGDMVDPFHTLFGIAGLSLLGEEQIKPVNPVFCMPEEVLQRVNVQPELVS
As for B2, in assay [2], the binding result was “binds”.
